Measured values from patent publication US9574173 (ACCELERATED BIOSCIENCES, dated 2017).

B1: myocyte enhancer factor 2A (MEF2A) (other, human, UniProt Q02078 1-507, looked up)
chain: MGRKKIQITRIMDERNRQVTFTKRKFGLMKKAYELSVLCDCEIALIIFNSSNKLFQYASTDMDKVLLKYTEYNEPHESRTNSDIVEALNKKEHRGCDSPDPDTSYVLTPHTEEKYKKINEEFDNMMRNHKIAPGLPPQNFSMSVTVPVTSPNALSYTNPGSSLVSPSLAASSTLTDSSMLSPPQTTLHRNVSPGAPQRPPSTGNAGGMLSTTDLTVPNGAGSSPVGNGFVNSRASPNLIGATGANSLGKVMPTKSPPPPGGGNLGMNSRKPDLRVVIPPSSKGMMPPLSEEEELELNTQRISSSQATQPLATPVVSVTTPSLPPQGLVYSAMPTAYNTDYSLTSADLSALQGFNSPGMLSLGQVSAWQQHHLGQAALSSLVAGGQLSQGSNLSINTNQNISIKSEPISPPRDRMTPSGFQQQQQQQQQQQPPPPPQPQPQPPQPQPRQEMGRSPVDSLSSSSSSYDGSDREDPRGDFHSPIVLGRPPNTEDRESPSVKRMRMDAWVT
notes: Endogenous protein of RA-treated hTS cells
B2: rac-gamma serine/threonine-protein kinase (AKt3) (enzyme)
chain: SDVTIVKEGWVQKRGEYIKNWRPRYFLLKTDGSFIGYKEKPQDVDLPYPLNNFSVAKCQLMKTERPKPNTFIIRCLQWTTVIERTFHVDTPEEREEWTEAIQAVADRLQRQEEERMNCSPTSQIDNIGEEEMDASTTHHKRKTMNDFDYLKLLGKGTFGKVILVREKASGKYYAMKILKKEVIIAKDEVAHTLTESRVLKNTRHPFLTSLKYSFQTKDRLCFVMEYVNGGELFFHLSRERVFSEDRTRFYGAEIVSALDYLHSGKIVYRDLKLENLMLDKDGHIKITDFGLCKEGITDAATMKTFCGTPEYLAPEVLEDNDYGRAVDWWGLGVVMYEMMCGRLPFYNQDHEKLFELILMEDIKFPRTLSSDAKSLLSGLLIKDPNKRLGGGPDDAKEIMRHSFFSGVNWQDVYDKKLVPPFKPQVTSETDTRYFDEEFTAQTITITPPEKYDEDGMDCMDNERRPHFPQFSYSASGRE
notes: as for B1

Key:
[1] = biological target: T1, E1A binding protein p300 (EP300) (human, UniProt Q09472 2-2414); assay: immunoprecipitation and Western blot, RA-treated hTS cells (FIG. 22c)
T1 construct: Endogenous protein of RA-treated hTS cells; also called ER300
T1 sequence (Q09472 2-2414 limits assumed): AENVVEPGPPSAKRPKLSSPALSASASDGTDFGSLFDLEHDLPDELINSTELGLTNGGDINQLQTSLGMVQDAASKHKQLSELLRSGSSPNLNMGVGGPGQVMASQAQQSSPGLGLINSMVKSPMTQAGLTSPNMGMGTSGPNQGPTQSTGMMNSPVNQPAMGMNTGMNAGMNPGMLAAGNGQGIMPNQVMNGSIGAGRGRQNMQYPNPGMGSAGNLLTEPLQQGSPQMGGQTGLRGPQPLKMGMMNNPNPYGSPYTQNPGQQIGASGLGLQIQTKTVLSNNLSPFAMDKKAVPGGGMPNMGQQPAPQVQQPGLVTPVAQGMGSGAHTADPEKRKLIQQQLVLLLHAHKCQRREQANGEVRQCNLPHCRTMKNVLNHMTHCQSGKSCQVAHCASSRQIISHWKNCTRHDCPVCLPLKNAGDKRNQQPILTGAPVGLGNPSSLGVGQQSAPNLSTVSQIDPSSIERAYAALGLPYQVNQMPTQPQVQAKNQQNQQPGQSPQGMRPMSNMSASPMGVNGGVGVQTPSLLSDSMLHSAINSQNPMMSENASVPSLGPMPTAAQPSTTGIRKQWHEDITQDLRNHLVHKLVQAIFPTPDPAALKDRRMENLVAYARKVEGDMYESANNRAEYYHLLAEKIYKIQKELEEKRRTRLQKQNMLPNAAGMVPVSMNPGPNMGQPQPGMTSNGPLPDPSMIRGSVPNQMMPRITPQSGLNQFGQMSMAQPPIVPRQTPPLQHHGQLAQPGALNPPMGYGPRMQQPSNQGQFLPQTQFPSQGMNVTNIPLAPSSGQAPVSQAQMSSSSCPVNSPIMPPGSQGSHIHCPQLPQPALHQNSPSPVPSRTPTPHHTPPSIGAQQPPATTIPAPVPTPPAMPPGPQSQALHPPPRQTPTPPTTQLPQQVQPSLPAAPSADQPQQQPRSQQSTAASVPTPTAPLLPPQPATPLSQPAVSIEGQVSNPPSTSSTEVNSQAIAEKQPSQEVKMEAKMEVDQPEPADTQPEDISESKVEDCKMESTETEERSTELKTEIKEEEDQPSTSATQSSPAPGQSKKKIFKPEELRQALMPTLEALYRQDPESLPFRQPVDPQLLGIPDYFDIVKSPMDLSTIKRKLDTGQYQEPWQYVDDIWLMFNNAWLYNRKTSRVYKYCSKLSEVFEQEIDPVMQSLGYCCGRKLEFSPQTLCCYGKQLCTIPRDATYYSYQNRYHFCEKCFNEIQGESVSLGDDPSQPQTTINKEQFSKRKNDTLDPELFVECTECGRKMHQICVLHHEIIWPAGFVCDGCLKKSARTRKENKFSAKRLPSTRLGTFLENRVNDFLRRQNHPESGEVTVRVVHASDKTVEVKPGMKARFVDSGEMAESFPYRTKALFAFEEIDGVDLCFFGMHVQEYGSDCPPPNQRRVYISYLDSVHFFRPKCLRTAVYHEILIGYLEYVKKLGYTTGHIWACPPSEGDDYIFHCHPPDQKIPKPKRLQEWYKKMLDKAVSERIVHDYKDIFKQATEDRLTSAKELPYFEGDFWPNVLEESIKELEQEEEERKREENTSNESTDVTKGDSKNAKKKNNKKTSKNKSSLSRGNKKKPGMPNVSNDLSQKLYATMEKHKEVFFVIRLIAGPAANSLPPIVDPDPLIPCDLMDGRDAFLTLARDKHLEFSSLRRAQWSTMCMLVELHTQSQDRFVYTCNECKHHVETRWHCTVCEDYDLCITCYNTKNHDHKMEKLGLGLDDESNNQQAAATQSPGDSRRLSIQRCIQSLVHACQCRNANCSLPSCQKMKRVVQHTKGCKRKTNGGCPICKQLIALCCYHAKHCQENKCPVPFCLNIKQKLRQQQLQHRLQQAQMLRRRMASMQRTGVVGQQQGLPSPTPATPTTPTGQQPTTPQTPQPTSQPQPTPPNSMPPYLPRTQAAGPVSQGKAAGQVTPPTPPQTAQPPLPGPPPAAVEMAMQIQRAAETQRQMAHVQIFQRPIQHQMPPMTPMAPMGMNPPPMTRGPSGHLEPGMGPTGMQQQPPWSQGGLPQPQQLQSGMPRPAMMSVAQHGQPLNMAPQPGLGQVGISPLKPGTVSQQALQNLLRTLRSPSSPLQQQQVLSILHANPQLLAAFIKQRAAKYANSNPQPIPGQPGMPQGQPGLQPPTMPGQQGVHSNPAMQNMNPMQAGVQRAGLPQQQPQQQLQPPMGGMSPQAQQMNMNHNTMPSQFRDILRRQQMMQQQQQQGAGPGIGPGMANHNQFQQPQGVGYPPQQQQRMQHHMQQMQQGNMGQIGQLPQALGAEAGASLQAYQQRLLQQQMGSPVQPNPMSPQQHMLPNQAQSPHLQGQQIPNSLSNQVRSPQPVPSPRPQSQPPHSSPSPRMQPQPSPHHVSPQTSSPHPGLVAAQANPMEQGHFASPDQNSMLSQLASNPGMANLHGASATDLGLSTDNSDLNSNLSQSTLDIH

[2] = biological target: mechanistic target of rapamycin (mTOR) (human, UniProt P42345 1-2549); assay: immunoprecipitation and Western blot, RA-treated hTS cells (FIG. 28d)

Row | Binder | binding result [1] | binding result [2]
1 | B1 | binds | 
2 | B2 |  | binds
